Measurements as given in US20210032299A1 (Eli Lilly, published 2021).
Starred links: 1 amine or outer side, 2 acyl side, 3 side chain; linkers in the order of their positions; H or OH if unused. Non-standard residues stand in square brackets, D forms with d. Groups on a side chain read outwards from the residue. No end group written: not given here. *: point of attachment. C20 diacid = O=C(O)CCCCCCCCCCCCCCCCCCC(=O)*; C18 diacid = O=C(O)CCCCCCCCCCCCCCCCC(=O)*; αMePhe(2-F) = C[C@](N)(Cc1ccccc1F)C(=O)O; γGlu = O=C(O)[C@H](CCC(=O)[*:2])N[*:1]; αMeY = C[C@](N)(Cc1ccc(O)cc1)C(=O)O; 4Pal = N[C@@H](Cc1ccncc1)C(=O)O; αMeL = CC(C)C[C@](C)(N)C(=O)O; Orn = NCCC[C@H](N)C(=O)O; AEEA = NCCOCCOCC(=O)O; Aib = CC(C)(N)C(=O)O

T1: human glucose-dependent insulinotropic peptide receptor (human, UniProt P48546 22-466)
T1 sequence (looked up): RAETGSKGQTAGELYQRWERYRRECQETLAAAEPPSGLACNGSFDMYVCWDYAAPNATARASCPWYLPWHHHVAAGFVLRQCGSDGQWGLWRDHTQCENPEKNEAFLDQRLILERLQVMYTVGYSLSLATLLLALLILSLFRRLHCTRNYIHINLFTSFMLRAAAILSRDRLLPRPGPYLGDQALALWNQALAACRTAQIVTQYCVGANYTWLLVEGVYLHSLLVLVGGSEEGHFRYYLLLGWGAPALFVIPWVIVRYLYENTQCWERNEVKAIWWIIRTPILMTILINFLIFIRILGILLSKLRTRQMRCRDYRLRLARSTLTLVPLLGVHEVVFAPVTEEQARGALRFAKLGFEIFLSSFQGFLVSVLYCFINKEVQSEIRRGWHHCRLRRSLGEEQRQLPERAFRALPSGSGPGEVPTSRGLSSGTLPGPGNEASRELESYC

B1: Example 90 (peptide)
peptide: Y[Aib]EGTFISDYSI[αMeL]LDKK([AEEA-AEEA-γGlu-C20 diacid])HQ[Aib]DFVE[αMeY]LLEAGPSSGAPPPS-NH2
modifications: N-terminus assumed
SMILES: CC[C@H](C)[C@H](NC(=O)[C@H](Cc1ccccc1)NC(=O)[C@@H](NC(=O)CNC(=O)[C@H](CCC(=O)O)NC(=O)C(C)(C)NC(=O)[C@@H](N)Cc1ccc(O)cc1)[C@@H](C)O)C(=O)N[C@@H](CO)C(=O)N[C@@H](CC(=O)O)C(=O)N[C@@H](Cc1ccc(O)cc1)C(=O)N[C@@H](CO)C(=O)N[C@H](C(=O)N[C@@](C)(CC(C)C)C(=O)N[C@@H](CC(C)C)C(=O)N[C@@H](CC(=O)O)C(=O)N[C@@H](CCCCN)C(=O)N[C@@H](CCCCNC(=O)COCCOCCNC(=O)COCCOCCNC(=O)CC[C@H](NC(=O)CCCCCCCCCCCCCCCCCCC(=O)O)C(=O)O)C(=O)N[C@@H](Cc1c[nH]cn1)C(=O)N[C@@H](CCC(N)=O)C(=O)NC(C)(C)C(=O)N[C@@H](CC(=O)O)C(=O)N[C@@H](Cc1ccccc1)C(=O)N[C@H](C(=O)N[C@@H](CCC(=O)O)C(=O)N[C@@](C)(Cc1ccc(O)cc1)C(=O)N[C@@H](CC(C)C)C(=O)N[C@@H](CC(C)C)C(=O)N[C@@H](CCC(=O)O)C(=O)N[C@@H](C)C(=O)NCC(=O)N1CCC[C@H]1C(=O)N[C@@H](CO)C(=O)N[C@@H](CO)C(=O)NCC(=O)N[C@@H](C)C(=O)N1CCC[C@H]1C(=O)N1CCC[C@H]1C(=O)N1CCC[C@H]1C(=O)N[C@@H](CO)C(N)=O)C(C)C)[C@@H](C)CC
B2: Example 91 (peptide)
peptide: Y[Aib]EGTFISDYSI[αMeL]LDKK([AEEA-AEEA-γGlu-C20 diacid])HQ[Aib]DFVE[αMeY]LLEGGPSSGAPPPS-NH2
modifications: N-terminus assumed
SMILES: CC[C@H](C)[C@H](NC(=O)[C@H](Cc1ccccc1)NC(=O)[C@@H](NC(=O)CNC(=O)[C@H](CCC(=O)O)NC(=O)C(C)(C)NC(=O)[C@@H](N)Cc1ccc(O)cc1)[C@@H](C)O)C(=O)N[C@@H](CO)C(=O)N[C@@H](CC(=O)O)C(=O)N[C@@H](Cc1ccc(O)cc1)C(=O)N[C@@H](CO)C(=O)N[C@H](C(=O)N[C@@](C)(CC(C)C)C(=O)N[C@@H](CC(C)C)C(=O)N[C@@H](CC(=O)O)C(=O)N[C@@H](CCCCN)C(=O)N[C@@H](CCCCNC(=O)COCCOCCNC(=O)COCCOCCNC(=O)CC[C@H](NC(=O)CCCCCCCCCCCCCCCCCCC(=O)O)C(=O)O)C(=O)N[C@@H](Cc1c[nH]cn1)C(=O)N[C@@H](CCC(N)=O)C(=O)NC(C)(C)C(=O)N[C@@H](CC(=O)O)C(=O)N[C@@H](Cc1ccccc1)C(=O)N[C@H](C(=O)N[C@@H](CCC(=O)O)C(=O)N[C@@](C)(Cc1ccc(O)cc1)C(=O)N[C@@H](CC(C)C)C(=O)N[C@@H](CC(C)C)C(=O)N[C@@H](CCC(=O)O)C(=O)NCC(=O)NCC(=O)N1CCC[C@H]1C(=O)N[C@@H](CO)C(=O)N[C@@H](CO)C(=O)NCC(=O)N[C@@H](C)C(=O)N1CCC[C@H]1C(=O)N1CCC[C@H]1C(=O)N1CCC[C@H]1C(=O)N[C@@H](CO)C(N)=O)C(C)C)[C@@H](C)CC
B3: Example 92 (peptide)
peptide: Y[Aib]EGTFISDYSI[αMeL]LDKIHQ[Aib]DFVEYK([AEEA-AEEA-γGlu-C20 diacid])LEQGPSSGAPPPS-NH2
modifications: N-terminus assumed
SMILES: CC[C@H](C)[C@H](NC(=O)[C@H](CCCCN)NC(=O)[C@H](CC(=O)O)NC(=O)[C@H](CC(C)C)NC(=O)[C@](C)(CC(C)C)NC(=O)[C@@H](NC(=O)[C@H](CO)NC(=O)[C@H](Cc1ccc(O)cc1)NC(=O)[C@H](CC(=O)O)NC(=O)[C@H](CO)NC(=O)[C@@H](NC(=O)[C@H](Cc1ccccc1)NC(=O)[C@@H](NC(=O)CNC(=O)[C@H](CCC(=O)O)NC(=O)C(C)(C)NC(=O)[C@@H](N)Cc1ccc(O)cc1)[C@@H](C)O)[C@@H](C)CC)[C@@H](C)CC)C(=O)N[C@@H](Cc1c[nH]cn1)C(=O)N[C@@H](CCC(N)=O)C(=O)NC(C)(C)C(=O)N[C@@H](CC(=O)O)C(=O)N[C@@H](Cc1ccccc1)C(=O)N[C@H](C(=O)N[C@@H](CCC(=O)O)C(=O)N[C@@H](Cc1ccc(O)cc1)C(=O)N[C@@H](CCCCNC(=O)COCCOCCNC(=O)COCCOCCNC(=O)CC[C@H](NC(=O)CCCCCCCCCCCCCCCCCCC(=O)O)C(=O)O)C(=O)N[C@@H](CC(C)C)C(=O)N[C@@H](CCC(=O)O)C(=O)N[C@@H](CCC(N)=O)C(=O)NCC(=O)N1CCC[C@H]1C(=O)N[C@@H](CO)C(=O)N[C@@H](CO)C(=O)NCC(=O)N[C@@H](C)C(=O)N1CCC[C@H]1C(=O)N1CCC[C@H]1C(=O)N1CCC[C@H]1C(=O)N[C@@H](CO)C(N)=O)C(C)C
B4: Example 93 (peptide)
peptide: Y[dA]EGTFISDYSILLDKIAQ[Aib]DFVNWK([AEEA-AEEA-γGlu-C18 diacid])LAQGPSSGAPPPS-NH2
modifications: N-terminus assumed
SMILES: CC[C@H](C)[C@H](NC(=O)[C@H](CCCCN)NC(=O)[C@H](CC(=O)O)NC(=O)[C@H](CC(C)C)NC(=O)[C@H](CC(C)C)NC(=O)[C@@H](NC(=O)[C@H](CO)NC(=O)[C@H](Cc1ccc(O)cc1)NC(=O)[C@H](CC(=O)O)NC(=O)[C@H](CO)NC(=O)[C@@H](NC(=O)[C@H](Cc1ccccc1)NC(=O)[C@@H](NC(=O)CNC(=O)[C@H](CCC(=O)O)NC(=O)[C@@H](C)NC(=O)[C@@H](N)Cc1ccc(O)cc1)[C@@H](C)O)[C@@H](C)CC)[C@@H](C)CC)C(=O)N[C@@H](C)C(=O)N[C@@H](CCC(N)=O)C(=O)NC(C)(C)C(=O)N[C@@H](CC(=O)O)C(=O)N[C@@H](Cc1ccccc1)C(=O)N[C@H](C(=O)N[C@@H](CC(N)=O)C(=O)N[C@@H](Cc1c[nH]c2ccccc12)C(=O)N[C@@H](CCCCNC(=O)COCCOCCNC(=O)COCCOCCNC(=O)CC[C@H](NC(=O)CCCCCCCCCCCCCCCCC(=O)O)C(=O)O)C(=O)N[C@@H](CC(C)C)C(=O)N[C@@H](C)C(=O)N[C@@H](CCC(N)=O)C(=O)NCC(=O)N1CCC[C@H]1C(=O)N[C@@H](CO)C(=O)N[C@@H](CO)C(=O)NCC(=O)N[C@@H](C)C(=O)N1CCC[C@H]1C(=O)N1CCC[C@H]1C(=O)N1CCC[C@H]1C(=O)N[C@@H](CO)C(N)=O)C(C)C
B5: Example 121 (peptide)
peptide: Y[Aib]EGT[αMePhe(2-F)]ISDYSILLDKIHQ[Aib]DFVE[4Pal]K([AEEA-AEEA-γGlu-C20 diacid])LEQGPSSGAPPPS-NH2
modifications: N-terminus assumed
SMILES: CC[C@H](C)[C@H](NC(=O)[C@H](CO)NC(=O)[C@H](Cc1ccc(O)cc1)NC(=O)[C@H](CC(=O)O)NC(=O)[C@H](CO)NC(=O)[C@@H](NC(=O)[C@](C)(Cc1ccccc1F)NC(=O)[C@@H](NC(=O)CNC(=O)[C@H](CCC(=O)O)NC(=O)C(C)(C)NC(=O)[C@@H](N)Cc1ccc(O)cc1)[C@@H](C)O)[C@@H](C)CC)C(=O)N[C@@H](CC(C)C)C(=O)N[C@@H](CC(C)C)C(=O)N[C@@H](CC(=O)O)C(=O)N[C@@H](CCCCN)C(=O)N[C@H](C(=O)N[C@@H](Cc1c[nH]cn1)C(=O)N[C@@H](CCC(N)=O)C(=O)NC(C)(C)C(=O)N[C@@H](CC(=O)O)C(=O)N[C@@H](Cc1ccccc1)C(=O)N[C@H](C(=O)N[C@@H](CCC(=O)O)C(=O)N[C@@H](Cc1ccncc1)C(=O)N[C@@H](CCCCNC(=O)COCCOCCNC(=O)COCCOCCNC(=O)CC[C@H](NC(=O)CCCCCCCCCCCCCCCCCCC(=O)O)C(=O)O)C(=O)N[C@@H](CC(C)C)C(=O)N[C@@H](CCC(=O)O)C(=O)N[C@@H](CCC(N)=O)C(=O)NCC(=O)N1CCC[C@H]1C(=O)N[C@@H](CO)C(=O)N[C@@H](CO)C(=O)NCC(=O)N[C@@H](C)C(=O)N1CCC[C@H]1C(=O)N1CCC[C@H]1C(=O)N1CCC[C@H]1C(=O)N[C@@H](CO)C(N)=O)C(C)C)[C@@H](C)CC
B6: Example 122 (peptide)
peptide: Y[Aib]EGTFISDYSI[αMeL]LD[Orn]IHQ[Aib]EFVE[4Pal]K([AEEA-AEEA-γGlu-C20 diacid])LEAGPSSGAPPPS-NH2
modifications: N-terminus assumed
SMILES: CC[C@H](C)[C@H](NC(=O)[C@H](CCCN)NC(=O)[C@H](CC(=O)O)NC(=O)[C@H](CC(C)C)NC(=O)[C@](C)(CC(C)C)NC(=O)[C@@H](NC(=O)[C@H](CO)NC(=O)[C@H](Cc1ccc(O)cc1)NC(=O)[C@H](CC(=O)O)NC(=O)[C@H](CO)NC(=O)[C@@H](NC(=O)[C@H](Cc1ccccc1)NC(=O)[C@@H](NC(=O)CNC(=O)[C@H](CCC(=O)O)NC(=O)C(C)(C)NC(=O)[C@@H](N)Cc1ccc(O)cc1)[C@@H](C)O)[C@@H](C)CC)[C@@H](C)CC)C(=O)N[C@@H](Cc1c[nH]cn1)C(=O)N[C@@H](CCC(N)=O)C(=O)NC(C)(C)C(=O)N[C@@H](CCC(=O)O)C(=O)N[C@@H](Cc1ccccc1)C(=O)N[C@H](C(=O)N[C@@H](CCC(=O)O)C(=O)N[C@@H](Cc1ccncc1)C(=O)N[C@@H](CCCCNC(=O)COCCOCCNC(=O)COCCOCCNC(=O)CC[C@H](NC(=O)CCCCCCCCCCCCCCCCCCC(=O)O)C(=O)O)C(=O)N[C@@H](CC(C)C)C(=O)N[C@@H](CCC(=O)O)C(=O)N[C@@H](C)C(=O)NCC(=O)N1CCC[C@H]1C(=O)N[C@@H](CO)C(=O)N[C@@H](CO)C(=O)NCC(=O)N[C@@H](C)C(=O)N1CCC[C@H]1C(=O)N1CCC[C@H]1C(=O)N1CCC[C@H]1C(=O)N[C@@H](CO)C(N)=O)C(C)C

Assays:
Assay in all cases: cell-based or functional assay
[1] = molecular target: T1, human glucose-dependent insulinotropic …
human GLP-1 receptor = human GLP-1 receptor (human, UniProt P43220 24-463)
human glucagon receptor = human glucagon receptor (human, UniProt P47871 26-477)
human glucagon receptor, sequence (P47871 26-477): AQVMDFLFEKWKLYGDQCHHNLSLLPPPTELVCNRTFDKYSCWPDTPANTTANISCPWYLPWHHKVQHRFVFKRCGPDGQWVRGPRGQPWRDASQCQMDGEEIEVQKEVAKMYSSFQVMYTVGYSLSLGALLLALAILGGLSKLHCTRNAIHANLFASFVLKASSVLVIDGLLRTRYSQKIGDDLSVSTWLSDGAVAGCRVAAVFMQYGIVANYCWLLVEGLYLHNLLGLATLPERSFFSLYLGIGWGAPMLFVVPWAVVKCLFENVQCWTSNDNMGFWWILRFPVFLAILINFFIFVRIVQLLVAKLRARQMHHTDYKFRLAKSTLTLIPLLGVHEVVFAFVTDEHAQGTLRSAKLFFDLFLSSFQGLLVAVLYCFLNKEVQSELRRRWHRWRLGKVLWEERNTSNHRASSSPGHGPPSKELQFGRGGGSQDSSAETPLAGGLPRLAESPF

Binder	hGIPR cAMP Rel EC50 [1] [nM]	hGLP1R cAMP Rel EC50 (human GLP-1 receptor) [nM]	hGcgR cAMP Rel EC50 (human glucagon receptor) [nM]
B1	0.0272	> 5000	> 5000
B2	0.0321	530	289
B3	0.0191	> 5000	> 5000
B4	0.00482	884	> 5000
B5	0.0196	> 5000	> 5000
B6	0.01	> 5000	> 5000
